Values quoted from earlier work as cited in article PMC9917443.
Where two headings read alike, the source gives them in different places. One block for each substance: values may come before it.

What was measured:
GB1a SD1 [1] = target: GB1a SD1 (UniProt Q9UBS5)
GB1a SD1 [2] = target: GB1a SD1 (UniProt Q9UBS5); remark: listed apart in the source
GB1a SD1 [3] = target: GB1a SD1 (UniProt Q9UBS5); remark: listed apart in the source

Sequence of GB1a SD1 (Q9UBS5 30-96): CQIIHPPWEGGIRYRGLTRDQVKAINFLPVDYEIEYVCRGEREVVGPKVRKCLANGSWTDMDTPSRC
Sequence of sAPP (P05067 18-687): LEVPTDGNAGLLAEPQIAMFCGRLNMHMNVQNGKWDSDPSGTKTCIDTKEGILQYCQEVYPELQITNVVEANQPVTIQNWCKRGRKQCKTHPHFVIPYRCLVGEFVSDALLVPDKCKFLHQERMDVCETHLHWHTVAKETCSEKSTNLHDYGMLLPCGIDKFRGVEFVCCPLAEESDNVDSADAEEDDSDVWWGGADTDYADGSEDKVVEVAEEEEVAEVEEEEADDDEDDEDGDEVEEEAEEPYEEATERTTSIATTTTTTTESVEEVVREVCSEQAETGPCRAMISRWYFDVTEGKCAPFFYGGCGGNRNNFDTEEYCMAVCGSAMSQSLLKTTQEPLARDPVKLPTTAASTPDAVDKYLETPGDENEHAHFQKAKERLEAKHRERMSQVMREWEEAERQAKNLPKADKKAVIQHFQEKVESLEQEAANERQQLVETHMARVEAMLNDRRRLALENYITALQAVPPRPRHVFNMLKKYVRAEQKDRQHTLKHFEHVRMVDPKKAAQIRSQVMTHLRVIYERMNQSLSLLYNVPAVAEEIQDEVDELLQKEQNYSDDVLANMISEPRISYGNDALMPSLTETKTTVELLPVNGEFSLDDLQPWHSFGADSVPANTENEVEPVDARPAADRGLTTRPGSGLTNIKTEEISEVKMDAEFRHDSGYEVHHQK
Sequence of APP (P05067 18-770): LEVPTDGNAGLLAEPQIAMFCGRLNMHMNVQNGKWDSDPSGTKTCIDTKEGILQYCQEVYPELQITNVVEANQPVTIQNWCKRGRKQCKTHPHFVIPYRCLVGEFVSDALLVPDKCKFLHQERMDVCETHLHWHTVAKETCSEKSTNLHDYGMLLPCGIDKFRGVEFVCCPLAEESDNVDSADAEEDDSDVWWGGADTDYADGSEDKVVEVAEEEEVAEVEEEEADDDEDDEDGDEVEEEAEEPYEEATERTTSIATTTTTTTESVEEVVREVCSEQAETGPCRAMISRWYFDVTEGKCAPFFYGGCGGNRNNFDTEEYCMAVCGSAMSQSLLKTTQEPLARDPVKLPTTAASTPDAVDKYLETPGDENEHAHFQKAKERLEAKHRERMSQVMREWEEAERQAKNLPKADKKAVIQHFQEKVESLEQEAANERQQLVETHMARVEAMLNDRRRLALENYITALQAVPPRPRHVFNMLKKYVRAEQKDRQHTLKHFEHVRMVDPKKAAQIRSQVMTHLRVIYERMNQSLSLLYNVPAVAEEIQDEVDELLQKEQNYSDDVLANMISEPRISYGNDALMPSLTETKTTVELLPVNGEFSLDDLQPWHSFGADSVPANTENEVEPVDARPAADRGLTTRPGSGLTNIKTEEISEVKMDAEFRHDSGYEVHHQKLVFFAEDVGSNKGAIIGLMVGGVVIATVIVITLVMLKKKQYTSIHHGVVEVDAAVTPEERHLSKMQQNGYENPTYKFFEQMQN

Kd (GB1a SD1 [1]): 810 nM
Substance: APP17 APP17 peptide (from UniProt P05067)

Kd (GB1a SD1 [2]): 183 nM
Substance: APP (from UniProt P05067)

Kd (GB1a SD1 [3]): 431 nM
Substance: sAPP (from UniProt P05067)
